For the assay, the target named is human proliferating cell nuclear antigen (PCNA), no tag (human, UniProt P12004 1-261). The assay can be described thus: fluorescence polarisation.
human proliferating cell nuclear antigen (PCNA), no tag, sequence (P12004 whole entry): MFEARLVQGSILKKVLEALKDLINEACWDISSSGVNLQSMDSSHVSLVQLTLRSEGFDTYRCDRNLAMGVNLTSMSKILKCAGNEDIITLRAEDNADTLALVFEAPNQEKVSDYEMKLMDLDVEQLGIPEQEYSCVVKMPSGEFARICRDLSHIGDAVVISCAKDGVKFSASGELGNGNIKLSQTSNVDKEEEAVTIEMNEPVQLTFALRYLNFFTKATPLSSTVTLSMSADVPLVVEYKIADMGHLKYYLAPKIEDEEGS

B1: trivalent p21 peptide (peptide)
chain: KRRQTSMTDFYHSKRRLIFSGGSGGSGGSGGSGGSGGSKRRQTSMTDFYHSKRRLIFSGGSGGSGGSGGSGGSGGSKRRQTSMTDFYHSKRRLIFS
B1 returned a concentration for half-maximal inhibition (IC50) of 0.6 µM and a Kd of 0.0022 ± 0.0002 µM.

B2: divalent p21 peptide (peptide)
chain: KRRQTSMTDFYHSKRRLIFSGGSGGSGGSGGSGGSGGSKRRQTSMTDFYHSKRRLIFS
B2 showed an IC50 of 1 µM and a Kd of 0.03 ± 0.002 µM.

Values taken from article PMC3417354 (Analytical biochemistry, 2012).
